Test: soluble on expression in E. coli; label from the status in PepcDB or PDB records

Row | Sequence | soluble on expression in E. coli
1 | MKKIITLFGACALAFSMANADVNLYGPGGPHTALKDIANKYSEKTGVKVNVNFGPQATWFEKAKKDADILFGASDQSALAIASDFGKDFNVSKIKPLYFREAIILTQKGNPLKIKGLKDLANKKVRIVVPEGAGKSNTSGTGVWEDMIGRTQDIKTIQNFRNNIVAFVPNSGSARKLFAQDQADAWITWIDWSKSNPDIGTAVAIEKDLVVYRTFNVIAKEGASKETQDFIAYLSSKEAKEIFKKYGWREH | soluble
2 | MSTTIRFLRIVTSRAMSSSWSCNKCTFLNSASQKLNCMICLAPVSLPSLSPPPPSLSISANDEAKWACKACTFLNTYKNSICDVCGTRSPTSSLLGFQDLTDSGLESNDADSSVGSVFFPLRRCIKRKAMDDDVVEVDGASVVCSESQGVMKKNKEIETKGVASDSGTPLTCLKILSYNVWFREDLELNLRMRAIGHLIQLHSPHLICFQEVTPEIYDIFRKSNWWKAYSCSVSVDVAVSRGYYCMLLSKLGVKSFSSKSFGNSIMGRELSIAEVEVPGRKPLVFATSHLESPCPGPPKWDQMFSRERVEQAKEAIEILRPNANVIFGGDMNWCDKLDGKFPLPDKWVDVWEVLKPGDLGFTYDTKANPMLSGNRALQKRLDRILCRLDDYKLGGIEMVGKEAIPGLSYVKEKKVRGDIKKLELPVLPSDHFGLLVTLSPK | soluble
3 | MTKPIVFQNARIIDPSRTIDEIGTVIVENGLIIAAGKEALNQGIPEGAEIINAQNKAILPGLVDARVFVGEPGNESRETLASASQSAAAGGITSFLMMPNTNPVIDNIALVKFITHTAQEISSVNIYPVAAITQGFNGQEIAEFGLLKDAGAVAFSEGKKTLQNSSVMRRAMTYARDFDVPLMHETQDKDLIGQGVMNEGLLASWLGLSGIPREAEVIPLERDLRLAALTQTRYHAAQISTALSADALRLSKQRSEKISAGVSINHLSFNENDIGEYRTSFRLIPPLRTEEDRIAMIEAIKDGTVDIIVSSHDPQSLDKKNLPFSEAAIGAIGMETLLSAALRLYHNGTISLLRLTELLSTTPAKLFDLNAGTLRKGTHADLILVDLDEPWIVSPEKLYSRSKNTPFEKAHFQGRVLQTFVKGQSIFKLDQ | not soluble
4 | MNPIAVTLLTGFLGAGKTTLLRHILNEQHGYKIAVIENEFGEVSVDDQLIGDRATQIKTLTNGCICCSRSNELEDALLDLLDNLDKGNIQFDRLVIECTGMADPGPIIQTFFSHEVLCQRYLLDGVIALVDAVHADEQMNQFTIAQSQVGYADRILLTKTDVAGEAEKLHERLARINARAPVYTVTHGDIDLGLLFNTNGFMLEENVVSTKPRFHFIADKQNDISSIVVELDYPVDISEVSRVMENLLLESADKLLRYKGMLWIDGEPNRLLFQGVQRLYSADWDRPWGDEKPHSTMVFIGIQLPEEEIRAAFAGLRK | soluble
5 | GPGSMRAEKVTVSPAGEGAAPLFVFGYGSILWKQQFEYLRALPCCVHGYKRVFYQGSTDHRGVPARPGRVVTLLTCGDPEAWVGGVAFELPVEEEKREKILAQLDDRESGGYEREEVTLYDIKTHERLHLPPGAVCLCYRATEDNPEYLGEAKDEAIAEQILSCEGLSGPNSEYLFKLAEALRKLESADQHVFAVETAALHIMKAQNVPE | soluble
6 | MIVTTAGRTNKEMTDYANEVAAELNASFVKRNDIPVHKLHEQYEQDVLVVGKNRLAIYPKGTEESFFFHPNSAMFRVKRLMRGEHDPFVQATQLERGMTVLDCTLGMASDSIVASYVVGESGKVTGLEGNEYMAYIMENGLKTWSSSVSEIDEAMQRIQVKQTEHFSFLAQCEDNSYDVVYLDPMFEETVIESDGIKGLKHFALYHDITDETIAEAKRVARKRVVLKDHFRSSRFEKHNFYVYKRKSAKFHFGVIDPC | not soluble
7 | AHHHHHHGSNTEKYLAKGLEDVYIDQTNICYIDGKEGKLYYRGYSVEELAELSTFEEVVYLLWWGKLPSLSELENFKKELAKSRGLPKEVIEIMEALPKNTHPMGALRTIISYLGNIDDSGDIPVTPEEVYRIGISVTAKIPTIVANWYRIKNGLEYVPPKEKLSHAANFLYMLHGEEPPKEWEKAMDVALILYAEHEINASTLAVMTVGSTLSDYYSAILAGIGALKGPIHGGAVEEAIKQFMEIGSPEKVEEWFFKALQQKRKIMGAGHRVYKTYDPRARIFKKYASKLGDKKLFEIAERLERLVEEYLSKKGISINVDYWSGLVFYGMKIPIELYTTIFAMGRIAGWTAHLAEYVSHNRIIRPRLQYVGEIGKKYLPIELRR | not soluble
8 | MLALMDADGNIAWSGEYDEWGNQLNEENPHHLHQPYRLPGQQYDKESGLYYNRNRYYDPLQGRYITQDPIGLEGGWSLYAYPLNPVNGIDPLGLSPADVALIRRKDQLNHQRAWDILSDTYEDMKRLNLGGTDQFFHCMAFCRVSKLNDAGVSRSAKGLGYEKEIRDYGLNLFGMYGRKVKLSHSEMIEDNKKDLAVNDHGLTCPSTTDCSDRCSDYINPEHKKTIKALQDAGYLKLEHHHHHH | not soluble
9 | MGKMRTPQEVPARLDALAEAARKLKFDVREPVDAGAGAIGAVHSLDYLRFLREAHARWKQLPDDWGDEVVSNVFVREPNALRGVLAQAARYLADGSCPVGPHTWQSAYWAAQCAISGAQTLLDGERHAYALCRPPGHHARRDAAGGFCYLNNAAIAAQMLTQRYKRVAILDTDMHHGQGIQEIFYERSDVLYVSIHGDPENFYPVVAGFENERGAGEGYGYNVNLPMPHGSPEPVFFDRLQQAQRAIELFQPDALVLSLGFDVFEKDPQAMVAVSANGFERLGQAIGAFKLPTLIVQEGGYYIEGLEDNAERFFAGLAKALEHHHHHH | not soluble
10 | MIKIELKNKDNQIITGRIDHEKPEAPFVAEGDTLAVLAIKQYLYQVGDKIVVTYTGATPYLMVQLDETLAPSLIYLKEKVWEYQIPLEESARKAFVDTAFHSARHQIMVRQAHTFEKDNYQNLSMNTHDQKEYSGAYPHAYANVETRDDAVFFAKNAIDSKFGNLSHGSYPFASWGINQKKEAQLTIDFGRPVETDWIRLLFRADYPHDSYWEEVTLAFSDGEERVVATTNTTCFQEIKFPMKTTQTLTLKCLRKALDSSPFPALTQIEVFGRNK | soluble
11 | MGSDKIHHHHHHYGGDITYNNHNNFHVLHDRHHRSHHSRSNSRDSDEKWECRRLGVFNSPNPLTNPLLSAPKIAYFNRNGKEYAIAVCENPQIQILVGKSRGASPDFTQTRDYAVLSASSKSGLTFKCNRRHDRYEAVNLVTGSMARIEALACITVAQNDTAAVAIVNGIVGPLQAAGLHL | not soluble
12 | MSLKLLAIAPYEGLRQLFLRVAEEEGLSIKAEVGNLDEGVRLAKKAADESFDVIISRGGTATLIQQHLSIPVVEIEISGYDLLKNLLFLKEYPDKKAIVGFPQITNGVQLINELLDVSFSTVTIHSEGEAIHALKELKAQGFESVLGDVITVNEAERLGMNGFLLSSGEESVRKAFNQAKRVVKALGRDRLNYELPLSYLHEQERGLVLLDQNNDVCFVNEFAKKFQLMEFINDHSFMRQLRTPRETGAFSWSDGHSVWYIRYKAIGNQGLAIEFAQLNERVLNDHPKEGHHHHHH | soluble
13 | MGSDKIHHHHHHMLMETTRLLDIRSMSVEFPGVKALDQVDFTLNRGEIVALLGENGAGKSTLIKALTGVYHRSSGDIILDGIAINPVNTAHAQSLGIGTVYQEVNLLPNLSVAANLFIGREPTRWGIVDQHKILLQAEALLLNYGLAIDVSHPLGNYSIAVQQIVAIARAVDLSAKVLILDEPTASLDAKEVDMLLDILRKLRDRGIGMIFVTHFLDQVYRISDRITVLRNGRLVGTLPTAELPRIELVQMMLGHSFDETLLKRGEHSDVSGEPIVQFKHYGRRGSINDFELSVRPGEIVGLAGLLGSGRTETAQLIFGINVPDAGEAWVDGKKINIRTPRAAGKLGFGYCPEDRKTDGIVGAATVRENIILALQAQRGWLKPISLREQTRIAEKFISLLGIRTPSAEQEIQYLSGGNQQKVLLSRWLATEPRFLILDEPTRGIDVGAHAEIIRLIEKLCEQGMALLVISSELEELTGYADRIIVLRDRQHVAHLEHSEISVAAVMQAIAVQTGAADDRQ | not soluble
14 | DMPVEKIQEAEMAVEPKDGNMVEQPNDPVTNICQAADKQLVTLVEWAKRIPHFSDLPIDDQVILLRAGWNELLIAAFSHRSIDVKDGILLASGLHVHRSSAHQAGVGTIFDRVLTELVAKMRDMKMDKTELGCLRAIVLFNPDAKGLTDPSLVESLREKVYASLEEYCKQQYPEQPGRFAKLLLRLPALRSIGLKCLEHLFFFKLIGDTPIDTFLMEML | soluble
15 | MGSDKIHHHHHHAQPTDPSTTDSELTMLVGTYTSGNSKGIYTFRFNEETGESLPLSDAEVANPSYLIPSADGKFVYSVNEFSKDQAAVSAFAFDKEKGTLHLLNTQKTMGADPCYLTTNGKNIVTANYSGGSITVFPIGQDGALLPASDVIEFKGSGPDKERQTMPHLHCVRITPDGKYLLADDLGTDQIHKFNINPNANADNKEKFLTKGTPEAFKVAPGSGPRHLIFNSDGKFAYLINEIGGTVIAFRYADGMLDEIQTVAADTVNAQGSGDIHLSPDGKYLYASNRLKADGVAIFKVDETNGTLTKVGYQLTGIHPRNFIITPNGKYLLVACRDTNVIQIFERDQATGLLTDIKKDIKVDKPVCLKFVD | not soluble
16 | MPVAHVALPVPLPRTFDYLLPEGMTVKAGCRVRVPFGKQQERIGIVVSVSDASELPLNELKAVVEVLDSEPVFTHSVWRLLLWAADYYHHPIGDVLFHALPILLRQGRPAANAPMWYWFATEQGQAVDLNSLKRSPKQQQALAALRQGKIWRDQVATLEFNDAALQALRKKGLCDLASETPEFSDWRTNYAVSGERLRLNTEQATAVGAIHSAADTFSAWLLAGVTGSGKTEVYLSVLENVLAQGKQALVMVPEIGLTPQTIARFRERFNAPVEVLHSGLNDSERLSAWLKAKNGEAAIVIGTRSALFTPFKNLGVIVIDEEHDSSYKQQEGWRYHARDLAVYRAHSEQIPIILGSATPALETLCNVQQKKYRLLRLTRRAGNARPAIQHVLDLKGQKVQAGLAPALITRMRQHLQADNQVILFLNRRGFAPALLCHDCGWIAECPRCDHYYTLHQAQHHLRCHHCDSQRPVPRQCPSCGSTHLVPVGLGTEQLEQTLAPLFPGVPISRIDRDTTSRKGALEQQLAEVHRGGARILIGTQMLAKGHHFPDVTLVALLDVDGALFSADFRSAERFAQLYTQVAGRAGRAGKQGEVVLQTHHPEHPLLQTLLYKGYDAFAEQALAERRMMQLPPWTSHVIVRAEDHNNQHAPLFLQQLRNLILSSPLADEKLWVLGPVPALAPKRGGRWRWQILLQHPSRVRLQHIINGTLALINTIPDSRKVKWVLDVDPIEG | soluble
17 | SRNFSVFERFSKAFKDHPSLTRILVVSTISGGGLIAYSEANASYGANGGAVVETGTKKKKVVLLGTGWAGTSFLKNLNNSQYEVQIISPRNYFAFTPLLPSVTCGTVEARSVVEPIRNIGRKNVDTSYLEAECFKIDPASKKVYCRSKQGLSSNGKKEFSVDYDYLVIATGAQSNTFNIPGVEENCHFLKEVEDAQRIRKTVIDSFEKASLPELSDEERKRILHFVVVGGGPTGVEFAAELHDFVTEDLVSLYPRAKGSVRITLLEAADHILTMFDKRITEFAEEKFSRDGIDVKLGSMVTKVNEKDISAKTKGGEVSSIPYGMIVWSTGIGTRPVIKDFMKQIGQGNRRALATDEWLRVEGTDNIYALGDCATINQRKVMEDVSAIFSKADKDKSGTLTLKEFQEAMDDICVRYPQVELYLKSKRMRGIADLLKEAETDDVSKNNIELKIEEFKSALSQVDSQVKFLPATAQVAAQQGAYLAKCFDRMEECEKSPEGPIRMRGEGRHRFRPFRYRHLGQFAPLGGEQTAAQLPGDWVSIGHSSQWLWYSVYASKQVSWRTRVLVVSDWMRRFIFGRDSSSI | soluble

— the DeepSol protein solubility set
